Biological target: Type 4 LDH (BL105A_0985), aromatic lactate dehydrogenase (ALDH) of B. longum ssp. longum 105-A (Bifidobacterium longum ssp. longum 105-A) (UniProt Q8G593)
Experiment: SEC; native molecular mass of the purified recombinant enzyme estimated by size exclusion chromatography (Supplementary Fig. 7b); dimer of the 33.9 kDa chain

stoichiometry N: 2
Substance: Type 4 LDH (BL105A_0985), aromatic lactate dehydrogenase (ALDH) of B. longum ssp. longum 105-A (from UniProt Q8G593 1-545) (enzyme)

Source: PMC8556157
